# From patent US8252583B2, “Method for inducing differentiation into cardiomyocytes using G-CSF” (Keiichi Fukuda, priority 2007, dated 2012)
# How the values were obtained:
# [1] = test system: G-CSFR expression; assay: G-CSFR expression in EBs derived from ES cells treated with Noggin (RT-PCR, immunostaining); assay type: cell-based, mouse
# Experimental: (§1) In the experiments described below, EB3 cells (kindly provided by Dr. Hitoshi Niwa of Riken, Japan) and R1 cells (kindly provided by Dr. Andrew Nagy of Mount Sinai Hospital, Canada) were used as ES cells. These ES cells were maintained on gelatin-coated plates in Glasgow Minimum Essential Medium (GMEM; Sigma) containing 10% fetal bovine serum, 2 mM L-glutamine, 0.1 mM nonessential amino acid solution, 1 mM sodium pyruvate, 0.1 mM 2-mercaptoethanol and 2000 U/mL leukemia inhibitory factor (LIF) (ESGRO; Chemicon).
# Suspension culture was performed as follows to form EBs from ES cells. ES cells were cultured for 3 days on gelatin-coated plates in α-MEM medium containing 10% fetal bovine serum, 2 mM L-glutamine, 0.1 mM nonessential amino acid solution, 1 mM sodium pyruvate, 0.1 mM 2-mercaptoethanol, 2000 U/mL leukemia inhibitory factor and 0.15 μg/ml Noggin (Noggin-Fc, R&D). The ES cells were then dispersed into single cells by treatment with a trypsin solution, and further cultured on uncoated Petri dishes using a three-dimensional culture system in the same differentiation medium as used above (except being free from LIF) to form spheroids, from which EBs (embryoid bodies) were induced. […]
# [2] = test system: human ES cells; details: human ES cells treated with 5-azacytidine; rises from 15%; cited from earlier work
# [3] = test system: cardiomyocyte markers; assay: Expression of cardiomyocyte markers in ES cell-derived EBs (RT-PCR, immunostaining); assay type: cell-based, mouse
# Text: Next, EBs at day 9 were used and analyzed for the expression of various cardiomyocyte-specific genes by RT-PCR and immunostaining. The cardiomyocyte markers used in RT-PCR were Tbx-5, MEF-2c (muscle enhancement factor-2c), Nkx2.5, GATA-4, βMHC (β myosin heavy chain), MLC-2v (myosin light chain-2v), αMHC (α-myosin heavy chain), BNP (brain natriuretic peptide), ANP (atrial natriuretic peptide) and GAPDH (glyceraldehyde-3-phosphate dehydrogenase). The cardiomyocyte markers used in immunostaining were α-actinin, actin, troponin 1-C, MF20 and ANP. […] Further, to study the optimum concentration of G-CSF, G-CSF was added at various concentrations (0.25, 0.75, 2.5, 7.5, 25, 75 ng/ml) to EBs at day 6, followed by RT-PCR to analyze the expression of each cardiomyocyte marker. It should be noted that EBs prepared at two cell densities, H ([…]) and L (5×10^4 cell/ml), were used in this test. […] To confirm a possibility that the promoting effect of G-CSF treatment to induce myocardial differentiation from ES cells would be mediated by the endogenous G-CSF signaling pathway, anti-G-CSF antibody (R&D systems) was added to medium simultaneously with G-CSF treatment and studied for its effect. EBs at day 6 were treated with G-CSF (7.5 ng/mL) in the presence of anti-G-CSF antibody at various concentrations (0, 1, 3, 9 ng/ml) to study the effect of anti-G-CSF antibody using various cardiomyocyte markers. […] To test the proliferation-promoting effect of G-CSF on ES cell-derived cardiomyocytes, EBs at day 6 were used to prepare G-CSF (7.5 ng/mL)-treated and untreated groups and a G-CSF+nocodazole (0.2 μg/mL)-treated group. […] These three groups were tested for various cardiomyocyte markers by RT-PCR.
# [4] = test system: cardiomyocyte markers; assay: Cardiomyocyte marker expression in CMES cells (RT-PCR, immunostaining); assay type: cell-based, common marmoset; details: for expression of cardiomyocyte markers (RT-PCR, FIG. 21b): CMES cells
# Experimental: (§2) To test the effect of G-CSF on primate cardiogenesis, common marmoset ES (CMES) cells (#20) (Sasaki et al., Stem Cells 23, 1304-1313 (2005)) were used. CMES cells were maintained on a layer of mitotically inactivated mouse embryonic fibroblasts (MEFs) in Knockout DMEM (GIBCO) medium supplemented with 20% Knockout Serum Replacement (KSR; GIBCO), 1 mM L-glutamine (GIBCO), 0.1 mM MEM nonessential amino acids (GIBCO), 0.1 mM β-mercaptoethanol (2-ME; Sigma), 10 ng/ml fibroblast growth factor (bFGF; Invitrogen) and 10 ng/ml human leukemia inhibitory factor (hLIF; Alomone labs). CMES cells were passaged every 5 days to maintain their undifferentiated state.
# (§3) Undifferentiated CMES cells were removed from the MEF feeder layer, dissociated into small colonies with a dissociation solution for human and monkey ES cells (ReproCELL. JAPAN), and then cultured to form EBs in suspension culture using HydroCell culture plates (CellSeed, JAPAN) in medium free from bFGF and hLIF.
# [5] = test system: fetal myocardial proliferation; assay: In vivo effect of G-CSF on cardiogenesis: BrdU immunostaining of fetal heart sections; set-up: species or system mouse
# Experimental: (§4) At 9.0 days of pregnancy, mice were laparotomized and G-CSF (100 ng/kg) or PBS (phosphate-buffered physiological saline; serving as a control) was directly administered into their uteri. At 9.5 days of pregnancy, the mice were then administered with BrdU (bromodeoxyuridine) by the intraperitoneal route. BrdU is incorporated during DNA synthesis and allows proliferation assessment by immunostaining. At 12.5 days of pregnancy, fetuses were collected to prepare heart sections, which were then analyzed in the same manner as shown for immunostaining in Example 1(2).
# Moreover, for quantification of the myocardial proliferation-promoting effect, the BrdU labeling index was calculated by the following equation. It should be noted that wild-type mice were used in this test, which were administered with BrdU at 10.5 days of pregnancy and analyzed at 12.5 days of pregnancy. BrdU labeling index=BrdU positive nuclei/total nuclei×100(%)
# [6] = test system: fetal hearts; assay: Hematoxylin-eosin staining of fetal heart sections after G-CSF administration; assay type: in vivo, mouse; details: G-CSF 100 ng/kg into uteri at 9.0 days of pregnancy; fetal hearts at 12.5 days
# Experimental: as §4
# [7] = test system: common marmoset ES (CMES) cells; assay: Spontaneous beating of common marmoset ES cell-derived EBs; assay type: cell-based; details: G-CSF 2.5 ng/mL added at 4, 6 or 9 days after EB formation
# Experimental: as §2, §3
# At 4, 6 and 9 days after EB formation, G-CSF (2.5 ng/mL) was added to observe spontaneous beating. The best result was obtained upon addition at 6 days after EB formation, and the difference between G-CSF-treated and untreated groups became evident at 14 days after EB formation.
# [8] = test system: fetal myocardial proliferation; assay: In vivo effect of G-CSF on cardiogenesis: Phospho-Histon H3 immunostaining of fetal heart sections; set-up: species or system mouse
# Experimental: G-CSF (2 ng) was directly administered into the uteri of pregnant mice at 9.0 days of pregnancy. At 13.5 days of pregnancy, fetuses were collected to prepare heart sections, which were then immunostained with Phospho-Histon H3. Phospho-Histon H3 is a dye that is specifically stained during the cell proliferation process.
# Next, the labeling index was calculated by the following equation. Labeling index=Phospho-Histon H3 positive nuclei/total nuclei×100(%)
# [9] = test system: ES cell-derived cardiomyocytes; assay: BrdU incorporation in ES cell-derived EBs (double immunostaining anti-BrdU / anti-mef2c); assay type: cell-based, mouse; details: EBs at day 6, G-CSF 2.5 ng/mL, BrdU for 18 hours; vs untreated
# Experimental: In addition, EBs at day 6 were used to prepare G-CSF (2.5 ng/mL)-treated and untreated groups, which were then incubated with BrdU for 18 hours.
# [10] = test system: ES cells; assay: Induction test of cardiomyocyte differentiation: autonomously beating EBs / total EBs; assay type: cell-based, mouse
# Experimental: as §1
# Namely, on gelatin-coated dishes, ES cells were maintained in an undifferentiated state in the presence of LIF, and suspension culture was started at day 0 in the absence of LIF to initiate differentiation of the ES cells, whereby EBs which had differentiated into cardiomyocytes were obtained at day 9. At days 5, 6, 7 and 8, G-CSF (2.5 ng/ml) was added and studied for its effect on EB formation. This effect was calculated by dividing the number of autonomously beating EBs by the total number of EBs.
# Based on the above results, the optimum concentration of G-CSF was determined. The optimum concentration was studied by comparing the values calculated by dividing the number of autonomously beating EBs by the total number of EBs.
molecule,measurement,setting,value
Noggin,"G-CSFR expression in EBs (immunostaining, FIG. 11)","[1]; Noggin(+) group vs Noggin(−) group, EBs at 6 days after EB formation",G-CSFR expression is increased
same,"start of G-CSFR expression in EBs (RT-PCR, FIG. 10)","[1]; Noggin(+) group, 0.15 μg/ml Noggin for 3 days",5 days after EB formation
Nc1ncn([C@@H]2O[C@H](CO)[C@@H](O)[C@H]2O)c(=O)n1 [5-azacytidine],percentage of troponin I-positive cells (cardiomyocytes) in EBs,[2],44%
"COC(=O)Nc1nc2ccc(C(=O)c3cccs3)cc2[nH]1 [Nocodazole, reference compound]","effect on G-CSF-increased expression of cardiomyocyte markers (RT-PCR, FIG. 19)","[3]; EBs at day 6, G-CSF 7.5 ng/mL + nocodazole 0.2 μg/mL",cancelled the increased expression of the cardiomyocyte markers
"mouse G-CSF: G-CSF of mouse origin used on CMES cells (protein, UniProt P09920 31-208, looked up) Granulocyte …: VPLVTVSALPPSLPLPRSFLLKSLEQVRKIQASGSVLLEQLCATYKLCHPEELVLLGHSLGIPKASLSGCSSQALQQTQCLSQLHSGLCLYQGLLQALSGISPALAPTLDLLQLDVANFATTIWQQMENLGVAPTVQPTQSAMPAFTSAFQRRAGGVLAISYLQGFLETARLALHHLA","expression of cardiomyocyte markers (RT-PCR, FIG. 21b)",[4],strongly enhance the expression of the cardiomyocyte markers
"G-CSF: hematopoietic factor, differentiation-inducing factor for granulocyte lineage hematopoietic stem cells; agonist for G-CSF receptor (protein, listed as Homo sapiens) TPLGPASSLPQSFLLKCLEQVRKIQGDGAALQEKLCATYKLCHPEELVLLGHSLGIPWAPLSSCPSQALQLAGCLSQLHSGLFLYQGLLQALEGISPELGPTLDTLQLDVADFATTIWQQMEELGMAPALQPTQGAMPAFASAFQRRAGGVLVASHLQSFLEVSYRVLRHLAQP","cardiac troponin I- and Nkx2.5-positive areas (immunostaining, FIG. 21c)","[4]; CMES-derived EBs, G-CSF-treated vs untreated",enhanced cardiac troponin I- and Nkx2.5-positive areas
same,"fetal myocardial proliferation (BrdU immunostaining, FIG. 4)","[5]; G-CSF 100 ng/kg into uteri at 9.0 days of pregnancy, BrdU i.p. at 9.5 days, fetuses collected at 12.5 days, vs PBS",promoted fetal myocardial proliferation
same,BrdU labeling index (FIG. 6),"[5]; wild-type mice, BrdU at 10.5 days of pregnancy, analyzed at 12.5 days",enhance myocardial proliferation
same,"heart section morphology (hematoxylin-eosin, FIG. 5a)",[6],extended trabecular layer
same,"effect of G-CSF addition on cardiogenesis (spontaneous beating, FIG. 21a)",[7],highest at 6 days after EB formation
same,"fetal myocardial proliferation (Phospho-Histon H3 immunostaining, FIG. 7)","[8]; G-CSF 2 ng into uteri at 9.0 days of pregnancy, fetuses collected at 13.5 days",enhance fetal myocardial proliferation
same,Phospho-Histon H3 labeling index (FIG. 8),[8]; embryonic days 8.5 to 10.5,strongly enhance myocardial proliferation
same,"expression of cardiomyocyte markers (RT-PCR and immunostaining, FIG. 15)","[3]; EBs at day 9, G-CSF-treated group",all the cardiomyocyte markers showed increased expression levels
same,"expression of contractile proteins, transcription factors and secretory proteins (RT-PCR, FIG. 16)","[3]; G-CSF 0.25 to 25 ng/ml added to EBs at day 6, cell densities H (2×10^3 cell/ml) and L (5×10^4 cell/ml), vs control group",increased expression levels
same,"cell proliferation of cardiomyocytes (BrdU labeling index, FIG. 20)",[9],promote cell proliferation of cardiomyocytes
same,"effect on EB formation (autonomously beating EBs / total EBs, FIG. 14)","[10]; G-CSF 2.5 ng/ml added at days 5, 6, 7 or 8, result for addition at day 6",greatest effect on EB formation
same,optimum timing of G-CSF administration,"[10]; G-CSF 2.5 ng/ml, days 5, 6, 7 and 8 compared",6 days
same,"optimum concentration of G-CSF (autonomously beating EBs / total EBs, FIG. 17)",[10]; added to EBs at day 6,0.75 ng/mL
"human G-CSF: G-CSF of human origin used on CMES cells (protein, UniProt P09919 31-207, looked up) Granulocyte …: TPLGPASSLPQSFLLKCLEQVRKIQGDGAALQEKLVSECATYKLCHPEELVLLGHSLGIPWAPLSSCPSQALQLAGCLSQLHSGLFLYQGLLQALEGISPELGPTLDTLQLDVADFATTIWQQMEELGMAPALQPTQGAMPAFASAFQRRAGGVLVASHLQSFLEVSYRVLRHLAQP","expression of cardiomyocyte markers (RT-PCR, FIG. 21b)",[4],strongly enhance the expression of the cardiomyocyte markers
